# Article PMC7388177 (Cell reports, 2020)
# T1: human ATG9A, purified in LMNG (mVenus-His tag cleaved) (human), Q7Z3C6
# T1 chain: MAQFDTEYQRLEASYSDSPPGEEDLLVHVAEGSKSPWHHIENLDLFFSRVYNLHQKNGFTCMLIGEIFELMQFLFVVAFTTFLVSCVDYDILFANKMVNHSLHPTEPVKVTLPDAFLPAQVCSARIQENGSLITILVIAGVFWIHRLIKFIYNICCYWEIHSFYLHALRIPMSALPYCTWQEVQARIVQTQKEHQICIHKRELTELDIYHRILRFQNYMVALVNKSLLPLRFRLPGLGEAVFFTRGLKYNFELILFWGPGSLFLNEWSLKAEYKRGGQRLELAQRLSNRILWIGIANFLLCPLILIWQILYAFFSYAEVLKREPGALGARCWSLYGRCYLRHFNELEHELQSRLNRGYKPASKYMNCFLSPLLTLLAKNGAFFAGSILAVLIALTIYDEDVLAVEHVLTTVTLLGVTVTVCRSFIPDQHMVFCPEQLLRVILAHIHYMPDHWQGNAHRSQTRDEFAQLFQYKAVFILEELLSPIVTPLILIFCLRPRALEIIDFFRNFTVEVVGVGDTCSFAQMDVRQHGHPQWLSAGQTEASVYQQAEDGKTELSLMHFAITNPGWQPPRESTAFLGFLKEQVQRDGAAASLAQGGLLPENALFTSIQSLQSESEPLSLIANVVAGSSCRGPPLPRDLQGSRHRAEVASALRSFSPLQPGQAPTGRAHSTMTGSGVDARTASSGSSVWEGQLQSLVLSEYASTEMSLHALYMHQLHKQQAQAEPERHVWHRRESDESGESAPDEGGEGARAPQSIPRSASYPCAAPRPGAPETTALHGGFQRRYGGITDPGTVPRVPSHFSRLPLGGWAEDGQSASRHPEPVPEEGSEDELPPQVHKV
# T2: endogenous ATG9A of HeLa cells (human (endogenous in HeLa)), Q7Z3C6
# T2 chain: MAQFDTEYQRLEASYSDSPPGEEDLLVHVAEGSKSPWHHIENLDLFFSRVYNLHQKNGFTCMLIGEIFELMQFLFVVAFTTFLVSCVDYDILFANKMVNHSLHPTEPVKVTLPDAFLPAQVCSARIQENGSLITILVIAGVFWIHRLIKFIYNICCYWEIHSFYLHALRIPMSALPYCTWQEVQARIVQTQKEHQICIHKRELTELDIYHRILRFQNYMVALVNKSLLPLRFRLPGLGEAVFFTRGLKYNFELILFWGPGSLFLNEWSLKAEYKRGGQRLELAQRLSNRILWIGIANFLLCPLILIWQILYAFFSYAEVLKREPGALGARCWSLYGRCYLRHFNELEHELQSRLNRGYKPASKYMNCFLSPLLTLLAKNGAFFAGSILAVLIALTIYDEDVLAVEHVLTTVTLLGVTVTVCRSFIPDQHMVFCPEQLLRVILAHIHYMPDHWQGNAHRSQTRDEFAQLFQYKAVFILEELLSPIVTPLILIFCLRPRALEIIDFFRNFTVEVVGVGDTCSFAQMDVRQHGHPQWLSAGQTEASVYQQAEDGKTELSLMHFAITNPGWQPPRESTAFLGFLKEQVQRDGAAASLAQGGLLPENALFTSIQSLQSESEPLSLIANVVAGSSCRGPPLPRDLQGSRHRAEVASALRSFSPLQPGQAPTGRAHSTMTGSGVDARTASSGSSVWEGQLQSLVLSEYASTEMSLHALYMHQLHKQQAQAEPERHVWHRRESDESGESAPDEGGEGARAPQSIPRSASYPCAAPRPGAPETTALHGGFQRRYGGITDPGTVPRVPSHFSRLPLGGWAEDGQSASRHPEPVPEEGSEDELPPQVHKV
# T3: ATG9A-mVenus fusion protein in membranes (human), Q7Z3C6
# T3 chain: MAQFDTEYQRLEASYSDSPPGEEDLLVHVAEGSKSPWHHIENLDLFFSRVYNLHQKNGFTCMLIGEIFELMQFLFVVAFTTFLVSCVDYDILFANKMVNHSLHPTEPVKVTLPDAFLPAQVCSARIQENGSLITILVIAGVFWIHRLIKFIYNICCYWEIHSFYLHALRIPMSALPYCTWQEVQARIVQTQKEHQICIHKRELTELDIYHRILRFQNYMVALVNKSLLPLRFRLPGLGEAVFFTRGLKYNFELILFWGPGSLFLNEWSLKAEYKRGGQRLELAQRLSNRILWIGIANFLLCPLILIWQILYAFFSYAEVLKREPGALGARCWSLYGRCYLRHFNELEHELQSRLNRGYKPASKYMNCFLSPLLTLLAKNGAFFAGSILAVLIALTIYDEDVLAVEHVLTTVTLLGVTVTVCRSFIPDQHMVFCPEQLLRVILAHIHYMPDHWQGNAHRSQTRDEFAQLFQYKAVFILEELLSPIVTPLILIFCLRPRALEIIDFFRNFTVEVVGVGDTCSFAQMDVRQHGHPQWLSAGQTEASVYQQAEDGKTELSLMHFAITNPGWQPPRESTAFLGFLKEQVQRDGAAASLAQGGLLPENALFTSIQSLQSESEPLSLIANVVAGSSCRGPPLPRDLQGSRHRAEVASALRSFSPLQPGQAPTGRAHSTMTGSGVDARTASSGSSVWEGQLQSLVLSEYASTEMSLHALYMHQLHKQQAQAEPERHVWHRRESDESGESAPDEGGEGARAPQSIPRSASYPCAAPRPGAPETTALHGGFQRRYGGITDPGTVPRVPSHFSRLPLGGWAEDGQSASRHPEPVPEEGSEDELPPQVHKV
# B1: human ATG9A, purified in LMNG (mVenus-His tag cleaved), Q7Z3C6 1-839 (natural protein)
# chain: MAQFDTEYQRLEASYSDSPPGEEDLLVHVAEGSKSPWHHIENLDLFFSRVYNLHQKNGFTCMLIGEIFELMQFLFVVAFTTFLVSCVDYDILFANKMVNHSLHPTEPVKVTLPDAFLPAQVCSARIQENGSLITILVIAGVFWIHRLIKFIYNICCYWEIHSFYLHALRIPMSALPYCTWQEVQARIVQTQKEHQICIHKRELTELDIYHRILRFQNYMVALVNKSLLPLRFRLPGLGEAVFFTRGLKYNFELILFWGPGSLFLNEWSLKAEYKRGGQRLELAQRLSNRILWIGIANFLLCPLILIWQILYAFFSYAEVLKREPGALGARCWSLYGRCYLRHFNELEHELQSRLNRGYKPASKYMNCFLSPLLTLLAKNGAFFAGSILAVLIALTIYDEDVLAVEHVLTTVTLLGVTVTVCRSFIPDQHMVFCPEQLLRVILAHIHYMPDHWQGNAHRSQTRDEFAQLFQYKAVFILEELLSPIVTPLILIFCLRPRALEIIDFFRNFTVEVVGVGDTCSFAQMDVRQHGHPQWLSAGQTEASVYQQAEDGKTELSLMHFAITNPGWQPPRESTAFLGFLKEQVQRDGAAASLAQGGLLPENALFTSIQSLQSESEPLSLIANVVAGSSCRGPPLPRDLQGSRHRAEVASALRSFSPLQPGQAPTGRAHSTMTGSGVDARTASSGSSVWEGQLQSLVLSEYASTEMSLHALYMHQLHKQQAQAEPERHVWHRRESDESGESAPDEGGEGARAPQSIPRSASYPCAAPRPGAPETTALHGGFQRRYGGITDPGTVPRVPSHFSRLPLGGWAEDGQSASRHPEPVPEEGSEDELPPQVHKV
# B2: endogenous ATG9A of HeLa cells, Q7Z3C6 1-839 (natural protein)
# chain: MAQFDTEYQRLEASYSDSPPGEEDLLVHVAEGSKSPWHHIENLDLFFSRVYNLHQKNGFTCMLIGEIFELMQFLFVVAFTTFLVSCVDYDILFANKMVNHSLHPTEPVKVTLPDAFLPAQVCSARIQENGSLITILVIAGVFWIHRLIKFIYNICCYWEIHSFYLHALRIPMSALPYCTWQEVQARIVQTQKEHQICIHKRELTELDIYHRILRFQNYMVALVNKSLLPLRFRLPGLGEAVFFTRGLKYNFELILFWGPGSLFLNEWSLKAEYKRGGQRLELAQRLSNRILWIGIANFLLCPLILIWQILYAFFSYAEVLKREPGALGARCWSLYGRCYLRHFNELEHELQSRLNRGYKPASKYMNCFLSPLLTLLAKNGAFFAGSILAVLIALTIYDEDVLAVEHVLTTVTLLGVTVTVCRSFIPDQHMVFCPEQLLRVILAHIHYMPDHWQGNAHRSQTRDEFAQLFQYKAVFILEELLSPIVTPLILIFCLRPRALEIIDFFRNFTVEVVGVGDTCSFAQMDVRQHGHPQWLSAGQTEASVYQQAEDGKTELSLMHFAITNPGWQPPRESTAFLGFLKEQVQRDGAAASLAQGGLLPENALFTSIQSLQSESEPLSLIANVVAGSSCRGPPLPRDLQGSRHRAEVASALRSFSPLQPGQAPTGRAHSTMTGSGVDARTASSGSSVWEGQLQSLVLSEYASTEMSLHALYMHQLHKQQAQAEPERHVWHRRESDESGESAPDEGGEGARAPQSIPRSASYPCAAPRPGAPETTALHGGFQRRYGGITDPGTVPRVPSHFSRLPLGGWAEDGQSASRHPEPVPEEGSEDELPPQVHKV
# B3: ATG9A-mVenus (F68C + N379C) (natural protein, human, UniProt Q7Z3C6 1-839, looked up)
# chain: MAQFDTEYQRLEASYSDSPPGEEDLLVHVAEGSKSPWHHIENLDLFFSRVYNLHQKNGFTCMLIGEICELMQFLFVVAFTTFLVSCVDYDILFANKMVNHSLHPTEPVKVTLPDAFLPAQVCSARIQENGSLITILVIAGVFWIHRLIKFIYNICCYWEIHSFYLHALRIPMSALPYCTWQEVQARIVQTQKEHQICIHKRELTELDIYHRILRFQNYMVALVNKSLLPLRFRLPGLGEAVFFTRGLKYNFELILFWGPGSLFLNEWSLKAEYKRGGQRLELAQRLSNRILWIGIANFLLCPLILIWQILYAFFSYAEVLKREPGALGARCWSLYGRCYLRHFNELEHELQSRLNRGYKPASKYMNCFLSPLLTLLAKCGAFFAGSILAVLIALTIYDEDVLAVEHVLTTVTLLGVTVTVCRSFIPDQHMVFCPEQLLRVILAHIHYMPDHWQGNAHRSQTRDEFAQLFQYKAVFILEELLSPIVTPLILIFCLRPRALEIIDFFRNFTVEVVGVGDTCSFAQMDVRQHGHPQWLSAGQTEASVYQQAEDGKTELSLMHFAITNPGWQPPRESTAFLGFLKEQVQRDGAAASLAQGGLLPENALFTSIQSLQSESEPLSLIANVVAGSSCRGPPLPRDLQGSRHRAEVASALRSFSPLQPGQAPTGRAHSTMTGSGVDARTASSGSSVWEGQLQSLVLSEYASTEMSLHALYMHQLHKQQAQAEPERHVWHRRESDESGESAPDEGGEGARAPQSIPRSASYPCAAPRPGAPETTALHGGFQRRYGGITDPGTVPRVPSHFSRLPLGGWAEDGQSASRHPEPVPEEGSEDELPPQVHKV
# B4: ATG9A-mVenus fusion protein in membranes, Q7Z3C6 1-839 (natural protein)
# chain: MAQFDTEYQRLEASYSDSPPGEEDLLVHVAEGSKSPWHHIENLDLFFSRVYNLHQKNGFTCMLIGEIFELMQFLFVVAFTTFLVSCVDYDILFANKMVNHSLHPTEPVKVTLPDAFLPAQVCSARIQENGSLITILVIAGVFWIHRLIKFIYNICCYWEIHSFYLHALRIPMSALPYCTWQEVQARIVQTQKEHQICIHKRELTELDIYHRILRFQNYMVALVNKSLLPLRFRLPGLGEAVFFTRGLKYNFELILFWGPGSLFLNEWSLKAEYKRGGQRLELAQRLSNRILWIGIANFLLCPLILIWQILYAFFSYAEVLKREPGALGARCWSLYGRCYLRHFNELEHELQSRLNRGYKPASKYMNCFLSPLLTLLAKNGAFFAGSILAVLIALTIYDEDVLAVEHVLTTVTLLGVTVTVCRSFIPDQHMVFCPEQLLRVILAHIHYMPDHWQGNAHRSQTRDEFAQLFQYKAVFILEELLSPIVTPLILIFCLRPRALEIIDFFRNFTVEVVGVGDTCSFAQMDVRQHGHPQWLSAGQTEASVYQQAEDGKTELSLMHFAITNPGWQPPRESTAFLGFLKEQVQRDGAAASLAQGGLLPENALFTSIQSLQSESEPLSLIANVVAGSSCRGPPLPRDLQGSRHRAEVASALRSFSPLQPGQAPTGRAHSTMTGSGVDARTASSGSSVWEGQLQSLVLSEYASTEMSLHALYMHQLHKQQAQAEPERHVWHRRESDESGESAPDEGGEGARAPQSIPRSASYPCAAPRPGAPETTALHGGFQRRYGGITDPGTVPRVPSHFSRLPLGGWAEDGQSASRHPEPVPEEGSEDELPPQVHKV
# B5: ATG9A-mVenus (N57C + P371C) (natural protein, human, UniProt Q7Z3C6 1-839, looked up)
# chain: MAQFDTEYQRLEASYSDSPPGEEDLLVHVAEGSKSPWHHIENLDLFFSRVYNLHQKCGFTCMLIGEIFELMQFLFVVAFTTFLVSCVDYDILFANKMVNHSLHPTEPVKVTLPDAFLPAQVCSARIQENGSLITILVIAGVFWIHRLIKFIYNICCYWEIHSFYLHALRIPMSALPYCTWQEVQARIVQTQKEHQICIHKRELTELDIYHRILRFQNYMVALVNKSLLPLRFRLPGLGEAVFFTRGLKYNFELILFWGPGSLFLNEWSLKAEYKRGGQRLELAQRLSNRILWIGIANFLLCPLILIWQILYAFFSYAEVLKREPGALGARCWSLYGRCYLRHFNELEHELQSRLNRGYKPASKYMNCFLSCLLTLLAKNGAFFAGSILAVLIALTIYDEDVLAVEHVLTTVTLLGVTVTVCRSFIPDQHMVFCPEQLLRVILAHIHYMPDHWQGNAHRSQTRDEFAQLFQYKAVFILEELLSPIVTPLILIFCLRPRALEIIDFFRNFTVEVVGVGDTCSFAQMDVRQHGHPQWLSAGQTEASVYQQAEDGKTELSLMHFAITNPGWQPPRESTAFLGFLKEQVQRDGAAASLAQGGLLPENALFTSIQSLQSESEPLSLIANVVAGSSCRGPPLPRDLQGSRHRAEVASALRSFSPLQPGQAPTGRAHSTMTGSGVDARTASSGSSVWEGQLQSLVLSEYASTEMSLHALYMHQLHKQQAQAEPERHVWHRRESDESGESAPDEGGEGARAPQSIPRSASYPCAAPRPGAPETTALHGGFQRRYGGITDPGTVPRVPSHFSRLPLGGWAEDGQSASRHPEPVPEEGSEDELPPQVHKV
# Tests used:
# [1] = biological target: T1, human ATG9A, purified in LMNG …; assay: negative-stain EM; conditions: remark: other sources report otherwise
# [2] = biological target: T2, endogenous ATG9A of HeLa cells (human …); assay: cross-linking; conditions: remark: other sources report otherwise
# cross-linking = biological target: the molecule itself; assay: cross-linking
# [3] = biological target: T3, ATG9A-mVenus fusion protein in …; assay: cross-linking; conditions: remark: other sources report otherwise
binder,measurement,setting,value
B1,stoichiometry N,[1],3
B2,stoichiometry N,[2],3
B3,stoichiometry N,cross-linking,3
B4,stoichiometry N,[3],3
B5,stoichiometry N,cross-linking,3
